Measured values reported in patent US7101989 (UNIVERSITY OF NORTH CAROLINA AT CHAPEL HILL, dated 2006).

Target: the molecule itself
Assay: SDS-PAGE of outer membranes solubilised at 37 C or 100 C

B1: DsrA (Ducreyi Serum Resistance A protein) of H. ducreyi strain 35000 (other)
chain: QQPPKFAGVSSLYSYEYDYGKGKWTWSNEGGFDIKVPGIKMKPKEWISKQATYLELQHYMPYTPVLVTYAPGVSPSPILLYPMSDPDQLGINRQQLKLNLYSYFNDLRHDFKLKVLDARISKNKQNIDTISKYLLELGTYLDDSYRMMEQNTHNINKLSKELQTGLANQSALSMLVQPNGVGKTSVSAAVGGYRDKTALAIGVGSRITDRFTAKAGVAFNTYNGGMSYGASVGYEF
notes: In Western blots DsrA was denatured, from outer membranes or total cellular proteins; In the vitronectin experiment it was on whole surface-iodinated bacteria and was then solubilised in detergent; It forms multimers of unstated number; also called 30 kDa protein; 30 kDa band
binding result: binds
